From article doi:10.1101/2023.10.18.562911

What was measured:
[1] = target: full-length GST-Rfa1 (S. cerevisiae) (UniProt P22336); test: MST
[2] = target: full-length GST-yKu70 (S. cerevisiae) (UniProt P32807); test: MST
Chain of UniProt P32807 (P32807 whole entry): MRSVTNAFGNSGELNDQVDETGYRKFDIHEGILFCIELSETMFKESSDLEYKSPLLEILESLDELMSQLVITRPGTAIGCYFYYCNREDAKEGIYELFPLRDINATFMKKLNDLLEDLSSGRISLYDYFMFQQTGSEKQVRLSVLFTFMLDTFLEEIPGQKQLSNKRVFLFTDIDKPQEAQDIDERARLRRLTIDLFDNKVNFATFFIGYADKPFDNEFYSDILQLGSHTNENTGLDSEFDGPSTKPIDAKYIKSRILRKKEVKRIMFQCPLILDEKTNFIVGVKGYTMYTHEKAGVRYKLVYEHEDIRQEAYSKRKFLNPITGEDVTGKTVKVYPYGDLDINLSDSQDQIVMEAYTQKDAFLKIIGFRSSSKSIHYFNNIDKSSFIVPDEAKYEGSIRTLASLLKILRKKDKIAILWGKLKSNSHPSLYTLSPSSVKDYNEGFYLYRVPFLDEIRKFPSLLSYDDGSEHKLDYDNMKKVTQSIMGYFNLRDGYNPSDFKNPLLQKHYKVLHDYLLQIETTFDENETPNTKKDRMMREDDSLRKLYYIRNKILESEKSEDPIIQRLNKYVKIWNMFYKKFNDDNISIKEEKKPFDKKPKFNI

Chain of UniProt P22336 (P22336 whole entry): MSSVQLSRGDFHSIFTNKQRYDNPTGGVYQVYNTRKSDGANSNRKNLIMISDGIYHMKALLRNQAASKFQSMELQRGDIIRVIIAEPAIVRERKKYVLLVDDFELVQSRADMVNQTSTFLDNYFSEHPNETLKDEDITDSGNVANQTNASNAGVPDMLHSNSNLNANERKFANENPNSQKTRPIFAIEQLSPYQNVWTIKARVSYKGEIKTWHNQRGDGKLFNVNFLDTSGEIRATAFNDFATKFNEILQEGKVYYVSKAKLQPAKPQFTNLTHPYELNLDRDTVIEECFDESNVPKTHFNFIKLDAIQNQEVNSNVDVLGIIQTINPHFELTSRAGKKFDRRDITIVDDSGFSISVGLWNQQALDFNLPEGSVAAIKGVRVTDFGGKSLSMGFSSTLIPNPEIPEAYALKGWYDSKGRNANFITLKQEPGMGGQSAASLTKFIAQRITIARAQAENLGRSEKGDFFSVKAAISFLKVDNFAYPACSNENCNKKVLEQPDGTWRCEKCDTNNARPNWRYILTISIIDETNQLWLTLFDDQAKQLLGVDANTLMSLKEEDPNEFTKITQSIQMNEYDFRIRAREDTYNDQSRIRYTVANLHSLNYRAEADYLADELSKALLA

Substance	Kd [1] [nM]	Kd [2] [nM]
yeast Y149F^me3 nucleosomes (from UniProt P61830 1-136) (complex)	1000	–
native chicken erythrocyte nucleosomes (complex)	1000	1200
yeast Y236F^me2 nucleosomes (from UniProt P61830 1-136) (complex)	–	1200
